Changes are numbered by the printed parent chain. Several values for one entry are separate records, joined by “and”; a condition that tells them apart may be missing. Identical values can stand only once.
T1: IL-17C (UniProt Q9P0M4 19-197, limits assumed)
T1 sequence (looked up): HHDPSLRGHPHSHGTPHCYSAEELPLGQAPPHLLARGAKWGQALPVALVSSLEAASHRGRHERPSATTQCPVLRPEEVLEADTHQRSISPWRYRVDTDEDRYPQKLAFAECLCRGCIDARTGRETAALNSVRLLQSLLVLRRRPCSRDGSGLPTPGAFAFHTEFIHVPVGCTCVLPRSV

T2: murine IL-17A (murine, UniProt Q62386 26-158, limits assumed)
T2 sequence (looked up): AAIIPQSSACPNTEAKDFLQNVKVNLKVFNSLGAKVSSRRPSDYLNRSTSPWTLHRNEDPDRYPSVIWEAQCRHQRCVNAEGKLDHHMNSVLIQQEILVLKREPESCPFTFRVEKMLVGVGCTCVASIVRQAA

T3: IL-17F (UniProt Q96PD4 31-163, limits assumed)
T3 sequence (looked up): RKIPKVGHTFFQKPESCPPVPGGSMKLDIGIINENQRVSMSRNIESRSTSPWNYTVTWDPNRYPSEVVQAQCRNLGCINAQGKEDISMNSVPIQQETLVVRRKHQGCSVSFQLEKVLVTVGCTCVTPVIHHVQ

B1: Clone 1.15 (VHH)
VHH: EVQLVESGGGLVQPGGSLRLSCAASGFTFSSYSMYWVRQAPGKGLEWVAEIRQDGSEQYYVDSVKGRFTISRDNAKNSLYLQMNSLRAEDTAVYYCAKGEILPLYFDYWGQGTLVTVSS
notes: Human single VH domain
B2: VH 1.19.1 (clone 1.19 expressed from phagemid vector: with linker residues and His tag) (VHH)
VHH: B1 VHH with A24T, S33G, R52K, Q58K
notes: Human single VH domain
B3: VH 1.20.1 (clone 1.20 expressed from phagemid vector: with linker residues and His tag) (VHH)
VHH: B1 VHH with S33G, E50K, R52E, Q58E, V61A, N77K
notes: Human single VH domain
B4: VH 1.3.1 (clone 1.3 expressed from phagemid vector: with linker residues and His tag) (VHH)
VHH: B1 VHH with R52K, E57V
notes: Human single VH domain; also called Clone 1.3 prep 1; Clone 1.3 prep 2
B5: VH 1.16.1 (clone 1.16 expressed from phagemid vector: with linker residues and His tag) (VHH)
VHH: B1 VHH with R52K, S85G
notes: Human single VH domain
B6: Clone 3.3 (VHH)
VHH: QVQLVQSGAEVKKPGASVKVSCAASGYTFTDYYLHWVRQAPGQGLEWMGWINPNTGTTKYAREFEGRVTMTRDTSISTAYMELSRLRSDDTAVYYCASMDRDYYDTSGYFGWFDSWGQGTLVTVSS
notes: Human single VH domain
B7: Clone 3.6 (VHH)
VHH: B6 VHH with M99L, Y103W, Y104R, D105S, T106P, S107N, G108D, F110Y
notes: Human single VH domain
B8: Clone 3.5 (VHH)
VHH: B6 VHH with M99L, Y103W, Y104R, D105S, T106P, S107N, G108D
notes: Human single VH domain
B9: Clone 3.11 (VHH)
VHH: QVQLVQSGAEVKKPGASVKVSCKASGYNFDAYHINWVRQAPGQGLEWMGSIKPNSGATKYAQKFQGRVTITRDTSISTAYMELSRLRSDDTAVYYCASLDRDTWYPHSYFGWFDSWGQGTLVTVSS
notes: Human single VH domain
B10: Clone 3.9 (VHH)
VHH: B9 VHH with L99M, T103Y, W104Y, Y105D, P106T, H107S, S108G
notes: Human single VH domain
B11: Clone 3.13 (VHH)
VHH: B9 VHH with F110A
notes: Human single VH domain
B12: Clone 1.8 (VHH)
VHH: B1 VHH with E1Q, S33G, E50K, R52E, Q58K, Y80F
notes: Human single VH domain
B13: VH 1.18.1 (clone 1.18 expressed from phagemid vector: with linker residues and His tag) (VHH)
VHH: B1 VHH with R52K, E57V, D62G, S63G
notes: Human single VH domain
B14: Clone 1.14 (VHH)
VHH: B1 VHH with P14R, S33R, E50S, R52E, Q58E, N77K, Y80F
notes: Human single VH domain
B15: Clone 1.12 (VHH)
VHH: B1 VHH with E1Q, S33G, E50K, R52E, Q58E
notes: Human single VH domain
B16: VH 1.17.1 (clone 1.17 expressed from phagemid vector: with linker residues and His tag) (VHH)
VHH: B1 VHH with R52K, Q53P, D54T, E57V, D62S, S63D
notes: Human single VH domain
B17: Clone 1.9 (VHH)
VHH: B1 VHH with E1Q, S33G, R52K, Q58K
notes: Human single VH domain
B18: VH 1.21.1 (clone 1.21 expressed from phagemid vector: with linker residues and His tag) (VHH)
VHH: B1 VHH with Q13L, R52K
notes: Human single VH domain
B19: Clone 1.22 (VHH)
VHH: B1 VHH with Q13R, S33G, E50K, R52E, Q58E, N77K
notes: Human single VH domain
B20: Clone 1.13 (VHH)
VHH: B1 VHH with S33G, E50S, R52E, Q58K
notes: Human single VH domain
B21: Clone 1.11 (VHH)
VHH: B1 VHH with S33Q, E50S, R52K, Q58E, Y80F
notes: Human single VH domain
B22: Family 4 (clone 4.1) (VHH)
VHH: QVQLVESGGGLVQPGGSLRLSCAASGFTFSSYWMNWVRQAPGKGLEWVATIKQDGSEKYYVDSVKGRFTISRDNATNSLFLQMNSLRAEDTAVYYCARGDTIFDGAFDIWGQGTMVTVSS
notes: Human single VH domain
B23: VH 1.2.3 (clone 1.2 with C terminal extension) (VHH)
VHH: B1 VHH with R52K, E57V, D62S, S63D
notes: Human single VH domain
B24: VH 1.2.2 (+HIS) (VHH)
VHH: B1 VHH with R52K, E57V, D62S, S63D
notes: also called 1.2.2 (clone 1.2 with C terminal extension and His tag)
B25: VH 1.3.3 (clone 1.3 with C terminal extension) (VHH)
VHH: B1 VHH with R52K, E57V
notes: Human single VH domain

These binders were tested against T1, IL-17C (assay: specificity ELISA on coated antigen, VH concentration not given).

Row | Binder | binding result
1 | B1 | no binding
2 | B2 | no binding
3 | B3 | no binding
4 | B4 | no binding
5 | B5 | no binding

These binders were tested against T4, recombinant IL-17RA-Fc (UniProt Q96F46 33-320) in the same assay as above.
T4 construct: Bought reagent; also called R & D systems cat #177-IR-100; receptor; not shown: Fc part of the bought fusion, not described

Row | Binder | binding result
6 | B1 | no binding
7 | B2 | no binding
8 | B3 | no binding
9 | B4 | no binding
10 | B5 | no binding

Each binder was assayed against T2, murine IL-17A in the same assay as above.

Row | Binder | binding result
11 | B1 | binds
12 | B2 | binds
13 | B3 | binds
14 | B4 | binds

These binders were tested against T3, IL-17F in the same assay as above.

Row | Binder | binding result
15 | B1 | no binding
16 | B2 | no binding
17 | B3 | no binding
18 | B4 | no binding
19 | B5 | no binding

What follows are binders tested against T5, recombinant human IL-17A (human, UniProt Q16552 24-155) (assay: SPR (BIAcore T200), IL-17A coupled to CM5 chip, single-cycle kinetics).
T5 construct: Bought recombinant protein (Peprotech AF-200-17); also called Peprotech AF-200-17
T5 sequence (Q16552 24-155): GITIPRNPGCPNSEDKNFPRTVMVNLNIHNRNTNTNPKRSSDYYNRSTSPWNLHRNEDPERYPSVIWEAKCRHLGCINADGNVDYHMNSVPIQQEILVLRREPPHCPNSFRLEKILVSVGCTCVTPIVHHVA

Row | Binder | Kd [nM] | koff [s⁻¹] | kon [M⁻¹ s⁻¹]
20 | B6 | 29 | 0.00285 | 99800
21 | B7 | 0.838 | 0.00048 | 573000
22 | B8 | 2.2 | 0.000619 | 281000
23 | B9 | 0.44 | 0.000237 | 538000
24 | B10 | 21 | 0.00201 | 96400
25 | B11 | 0.197 | 0.000201 | 1.02e+06

Target: T5, recombinant human IL-17A
Test: as above
Remark: another data set of the same source

Row | Binder | Kd | koff | kon
26 | B12 | 0.616 nM | 0.000429 s⁻¹ | 697000 M⁻¹ s⁻¹
27 | B1 | 0.232 nM | 0.000242 s⁻¹ | 1.04e+06 M⁻¹ s⁻¹
28 | B13 | 0.366 nM | 0.000479 s⁻¹ | 1.31e+06 M⁻¹ s⁻¹
29 | B2 | 0.215 nM | 0.000153 s⁻¹ | 714000 M⁻¹ s⁻¹
30 | B14 | 0.913 nM | 0.000688 s⁻¹ | 753000 M⁻¹ s⁻¹
31 | B15 | 0.724 nM | 0.00053 s⁻¹ | 732000 M⁻¹ s⁻¹
32 | B3 | 0.244 nM | 0.000208 s⁻¹ | 851000 M⁻¹ s⁻¹
33 | B4 | 0.627 nM and 0.23 nM | 0.000501 s⁻¹ and 0.000222 s⁻¹ | 799000 M⁻¹ s⁻¹ and 964000 M⁻¹ s⁻¹
34 | B16 | 0.5 nM | 0.000462 s⁻¹ | 923000 M⁻¹ s⁻¹
35 | B17 | 0.529 nM | 0.000464 s⁻¹ | 877000 M⁻¹ s⁻¹
36 | B18 | 0.259 nM | 0.000205 s⁻¹ | 792000 M⁻¹ s⁻¹
37 | B5 | 0.216 nM | 0.000213 s⁻¹ | 986000 M⁻¹ s⁻¹
38 | B19 | 0.223 nM | 0.000126 s⁻¹ | 565000 M⁻¹ s⁻¹
39 | B20 | 0.84 nM | 0.000515 s⁻¹ | 614000 M⁻¹ s⁻¹
40 | B21 | 0.845 nM | 0.000521 s⁻¹ | 617000 M⁻¹ s⁻¹

The binders below were run against T5, recombinant human IL-17A (assay: cell-based or functional assay).

Row | Binder | Cell assay IC50 (nM), IL-17A-induced IL6 release from HT1080 [nM]
41 | B12 | 1.2
42 | B1 | 2.5
43 | B13 | 1.04
44 | B2 | 1.2
45 | B14 | 2.9
46 | B15 | 1.4
47 | B3 | 2.03
48 | B16 | 1.91
49 | B17 | 2.4
50 | B18 | 2.05
51 | B5 | 1.4
52 | B19 | 3.25
53 | B20 | 1.2
54 | B21 | 1.5

Target: T5, recombinant human IL-17A
Test: cell-based or functional assay
Remark: another data set of the same source

Row | Binder | Cell assay IC50 (nM), IL-17A-induced IL6 release from HT1080 [nM]
55 | B6 | 106
56 | B7 | 28
57 | B8 | 26
58 | B9 | 17
59 | B10 | 182
60 | B11 | 5

These binders were tested against T5, recombinant human IL-17A (assay: competition ELISA, IL-17A binding to coated IL-17RA-Fc).

Row | Binder | IC50 [nM]
61 | B22 | 3140

Each binder was assayed against T5, recombinant human IL-17A (assay: BIAcore single-cycle kinetics on immobilised IL-17A, 1:1 binding fit).

Row | Binder | Kd [nM] | koff [s⁻¹] | kon [M⁻¹ s⁻¹]
62 | B23 | 0.62 | 0.000465 | 748000
63 | B24 | 0.55 | 0.000485 | 874000

Target: T5, recombinant human IL-17A
Test: as above
Remark: another data set of the same source

Row | Binder | Kd [nM] | kon [M⁻¹ s⁻¹]
64 | B25 | 0.68 | 750000

Target: T5, recombinant human IL-17A
Test: competition ELISA, IL-17A binding to coated IL-17RA-Fc
Remark: another data set of the same source

Row | Binder | IC50 [nM]
65 | B6 | 271
66 | B7 | 3
67 | B8 | 4
68 | B9 | 8
69 | B10 | 43
70 | B11 | 2

Target: T5, recombinant human IL-17A
Test: SPR (BIAcore T200), IL-17A coupled to CM5 chip, single-cycle kinetics
Remark: another data set of the same source

Row | Binder | Kd [nM] | koff [s⁻¹] | kon [M⁻¹ s⁻¹]
71 | B22 | 493 | 0.00289 | 5860
